# Laboratory results published in patent US6835378B2, “Method and compositions for inhibiting thrombin-induced coagulation” (The Texas A&M University System University, priority 2001, dated 2004).
# “Also recorded” adds a separate entry of the source.
# T1: thrombin digested Fg (Homo sapiens, UniProt P02675)
# T1 construct: purchased Enzyme Research Labs
# T1 sequence (P02675 45-491 limits assumed): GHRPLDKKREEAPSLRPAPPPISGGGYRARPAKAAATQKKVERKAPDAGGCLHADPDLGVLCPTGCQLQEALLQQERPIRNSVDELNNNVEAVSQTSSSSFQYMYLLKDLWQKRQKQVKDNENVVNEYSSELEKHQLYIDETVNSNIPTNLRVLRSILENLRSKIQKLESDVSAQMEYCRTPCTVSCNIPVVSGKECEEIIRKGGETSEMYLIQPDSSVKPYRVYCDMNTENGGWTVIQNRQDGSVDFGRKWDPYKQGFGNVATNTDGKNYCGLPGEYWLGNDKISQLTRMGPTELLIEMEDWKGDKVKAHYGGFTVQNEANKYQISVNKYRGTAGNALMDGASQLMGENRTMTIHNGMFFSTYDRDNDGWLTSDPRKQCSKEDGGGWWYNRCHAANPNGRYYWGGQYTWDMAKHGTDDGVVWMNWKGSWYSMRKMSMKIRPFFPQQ
# T1 sequence (P02671 36-629 partner limits assumed): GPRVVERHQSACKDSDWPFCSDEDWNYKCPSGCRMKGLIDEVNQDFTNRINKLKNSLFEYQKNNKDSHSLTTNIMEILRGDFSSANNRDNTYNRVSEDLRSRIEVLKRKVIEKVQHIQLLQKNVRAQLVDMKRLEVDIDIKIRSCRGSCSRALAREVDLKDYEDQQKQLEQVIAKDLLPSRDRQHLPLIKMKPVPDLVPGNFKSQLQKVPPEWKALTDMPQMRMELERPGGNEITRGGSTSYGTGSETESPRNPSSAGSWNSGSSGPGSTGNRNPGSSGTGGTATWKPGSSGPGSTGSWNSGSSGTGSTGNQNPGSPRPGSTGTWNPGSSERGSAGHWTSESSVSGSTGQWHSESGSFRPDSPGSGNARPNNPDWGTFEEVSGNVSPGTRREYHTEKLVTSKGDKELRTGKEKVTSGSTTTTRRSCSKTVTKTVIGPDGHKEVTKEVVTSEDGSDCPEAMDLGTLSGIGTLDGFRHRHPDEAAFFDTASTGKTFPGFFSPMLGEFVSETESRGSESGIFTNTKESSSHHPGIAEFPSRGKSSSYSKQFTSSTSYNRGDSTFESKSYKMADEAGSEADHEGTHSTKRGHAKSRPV
# T1 sequence (P02679 27-437 isoform P02679-2 partner limits assumed): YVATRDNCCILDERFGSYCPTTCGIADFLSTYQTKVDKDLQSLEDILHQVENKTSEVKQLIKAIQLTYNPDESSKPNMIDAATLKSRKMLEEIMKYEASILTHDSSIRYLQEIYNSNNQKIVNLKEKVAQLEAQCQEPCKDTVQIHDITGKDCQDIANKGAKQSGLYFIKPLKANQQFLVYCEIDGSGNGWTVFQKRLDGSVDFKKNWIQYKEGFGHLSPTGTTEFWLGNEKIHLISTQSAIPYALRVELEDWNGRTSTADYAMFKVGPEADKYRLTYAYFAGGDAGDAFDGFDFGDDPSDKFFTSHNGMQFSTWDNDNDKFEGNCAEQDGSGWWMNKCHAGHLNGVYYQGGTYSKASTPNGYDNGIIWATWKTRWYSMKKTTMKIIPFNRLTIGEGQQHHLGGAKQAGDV
# B1: rSdrG(50-597): recombinant His-tagged A region (residues 50-597) of SdrG, a fibrinogen-binding MSCRAMM from S. epidermidis (protein)
# chain: HHHHHHAEENTVQDVKDSNMDDELSDSNDQSSNEEKNDVINNSQSINTDDDNQIKKEETNSNDAIENRSKDITQSTTNVDENEATFLQKTPQDNTQLKEEVVKEPSSVESSNSSMDTAQQPSHTTINSEASIQTSDNEENSRVSDFANSKIIESNTESNKEENTIEQPNKVREDSITSQPSSYKNIDEKISNQDELLNLPINEYENKVRPLSTTSAQPSSKRVTVNQLAAEQGSNVNHLIKVTDQSITEGYDDSDGIIKAHDAENLIYDVTFEVDDKVKSGDTMTVNIDKNTVPSDLTDSFAIPKIKDNSGEIIATGTYDNTNKQITYTFTDYVDKYENIKAHLKLTSYIDKSKVPNNNTKLDVEYKTALSSVNKTITVEYQKPNENRTANLQSMFTNIDTKNHTVEQTIYINPLRYSAKETNVNISGNGDEGSTIIDDSTIIKVYKVGDNQNLPDSNRIYDYSEYEDVTNDDYAQLGNNNDVNINFGNIDSPYIIKVISKYDPNKDDYTTIQQTVTMQTTINEYTGEFRTASYDNTIAFSTSSGQGQGDLPPE
# Tests used:
# [1] = target: T1, thrombin digested Fg; test: ELISA with thrombin-digested Fg; assay type: binding; conditions: Fg wells pretreated with thrombin 30 min 37° C.
# Description: For the ELISA with thrombin-digested Fg, the plate was coated with Fg and blocked as described above. The plate was washed three times with PBST and 50 μl of 1.0 NIH unit/ml of thrombin was added to the Fg coated wells. The plate was incubated at 37° C. for 30 min. The plate was washed three times with PBST and 50 μl of 1.0 NIH unit/ml of hirudin (Sigma) was added to the wells and incubated at 37° C. for 30 min. The plate was washed three times with PBST and blocked with 1% BSA for 1 h at room temperature. After washing three times with PBST, 100 μl of biotin labeled rSdrG(50-597) (25-1000 nM) or a rSdrG(50-597)/hirudin (1.0 NIH unit/ml) mixture was added to the wells and incubated for 1 h at room temperature. The plate was washed three times with PBST and a 1:5000 dilution of streptavidin-AP conjugated (Boehringer Mannheim) in PBST/0.1% BSA was added to the wells for 1 h at room temperature. The plate was washed three times with PBST and developed as described above.
# [2] = system: fibronectin, collagen types I and IV, vitronectin, laminin and thrombospondin; test: ELISA: ligand specificity on other immobilized ECM proteins; assay type: binding; conditions: data not shown
# [3] = system: thrombin-induced fibrin clot formation; test: Fg coagulation assay (fibrin clot inhibition); assay type: biochemical; conditions: 3.0 μM Fg, 0-6.0 μM protein, 1.0 NIH unit/ml thrombin, OD 405 nm
# Description: Fg Coagulation Assay—150 μl of a 3.0 μM Fg solution was incubated with 10 μl of rSdrG(50-597) or BSA (1.0-6.0 μM) and 50 μl of thrombin (Sigma) (1.0 NIH unit/ml) in microtiter wells at room temperature. Clot formation was monitored by measuring the increase in optical density (OD) at 405 nm over time and expressed as Vmax (mOD/min). A plate reader (Thermomax microplate reader, SOFTmax software, Molecular Devices) was used to monitor OD. Using the kinetic mode with one wavelength (L1=405 nm), samples were read every 10 sec for 5 min. In this assay, 1.0 NIH unit/ml of thrombin incubated with 3.0 μM Fg produced a fibrin clot in 5 min at room temperature.
# rSdrG(50-597) Inhibits Thrombin-Induced Fibrin Clot Formation—In the final stages of the blood coagulation cascade, thrombin cleaves Fg releasing the fibrinopeptides and producing fibrin monomers. These fibrin monomers then polymerize to form a fibrin clot (20). […] To test this hypothesis, we designed a fibrin clot inhibition assay in which 3.0 μM Fg, 0-6.0 μM rSdrG(50-597) and 1.0 NIH unit/ml of thrombin were incubated and the formation of a fibrin clot was monitored by measuring the increase in optical density at 405 nm.
# [4] = system: Serine protease-digested Fg; test: ELISA with serine protease-treated immobilized Fg; assay type: binding, human; conditions: 30 min at room temperature
# Description: Fg coated microtiter wells were pretreated for 30 min at room temperature with ancrod (•), PBS (untreated) (▾), thrombin (♦) or contortrixobin (▪). Plates were blocked, washed and incubated with a serine protease inhibitor (1 NIH unit/ml hirudin for thrombin and 100 μg/ml PMSF for ancrod and contortrixobin). Biotin labeled rSdrG(50-597) (25-1000 nM) was incubated in the wells for 1 h at room temperature. Values represent the mean±standard deviation of triplicate wells.
# The A[…] chain may interfere with rSdrG(50-597) binding to the Bβ chain and this observation may be due to the absence of FpA, thus making the N-terminus of the Bβ chain more easily accessible.
molecule,measurement,setting,value
B1,binding to thrombin digested Fg,[1],significantly impaired; also recorded: unable to bind
same,binding to thrombin digested Fg,[1]; listed as SdrG,could not bind; also recorded: does not bind
same,binding to other immobilized ECM proteins,[2],failed to bind
same,fibrin clot formation,[3],inhibited fibrin clot formation in a concentration dependent manner
same,fibrin clot formation,[3]; listed as SdrG,inhibit thrombin-induced fibrinogen coagulation
same,binding to Fg treated with contortrixobin,[4],could not bind; also recorded: not able to bind
same,binding to Fg treated with thrombin,[4],could not bind
same,binding to Fg treated with ancrod,[4]; versus untreated Fg,bind better; also recorded: still able to bind
